{"source": "patent US5747253", "tested_on": "c-Myc, P01106-1", "sequence (P01106 16-454)": "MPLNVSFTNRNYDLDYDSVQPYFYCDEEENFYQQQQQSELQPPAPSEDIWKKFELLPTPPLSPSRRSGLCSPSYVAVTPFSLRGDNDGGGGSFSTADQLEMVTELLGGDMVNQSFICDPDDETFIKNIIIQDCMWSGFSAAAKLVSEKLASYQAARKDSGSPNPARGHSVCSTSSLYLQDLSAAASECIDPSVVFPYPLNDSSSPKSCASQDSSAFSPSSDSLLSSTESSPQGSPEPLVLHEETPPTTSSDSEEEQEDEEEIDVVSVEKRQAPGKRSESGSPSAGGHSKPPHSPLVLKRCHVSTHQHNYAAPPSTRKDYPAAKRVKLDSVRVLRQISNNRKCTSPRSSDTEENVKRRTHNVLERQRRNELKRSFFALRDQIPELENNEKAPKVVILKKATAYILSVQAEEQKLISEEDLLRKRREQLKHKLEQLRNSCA", "experiment": "competition", "conditions": "2'-OMe; 50 uM pool vs myc PS site; FIG. 5 labels this pool SEQ ID NO:33"}
{"sequence": "GCGNNNCNNNNNNCGC [2'-OMe pool X=C]", "values": [{"measurement": "binding signal", "value": 50, "unit": "% inhibition"}]}
